Measured values: paper doi:10.1101/2020.04.10.035014 (bioRxiv, 2020)

B1: C-terminus of INTS3 (INTS3c; residues 560-905 and 915-995, co-expressed) (domain or fragment, human)
chain 1: TVVEEPVDITPYLDQLDESLRDKVLQLQKGSDTEAQCEVMQEIVDQVLEEDFDSEQLSVLASCLQELFKAHFRGEVLPEEITEESLEESVGKPLYLIFRNLCQMQEDNSSFSLLLDLLSELYQKQPKIGYHLLYYLRASKAAAGKMNLYESFAQATQLGDLHTCLMMDMKACQEDDVRLLCHLTPSIYTEFPDETLRSGELLNMIVAVIDSAQLQELVCHVMMGNLVMFRKDSVLNILIQSLDWETFEQYCAWQLFLAHNIPLETIIPILQHLKYKEHPEALSCLLLQLRREKPSEEMVKMVLSRPCHPDDQFTTSILRHWCMKHDELLAEHIKSLLIKNNSLPRK
chain 2: KLAQLTLEQILEHLDNLRLNLTNTKQNFFSQTPILQALQHVQASCDEAHKMKFSDLFSLAEEYEDSSTKPPKSRRKAALSS
B2: C-terminus of INTS6 (INTS6c; residues 800-887) (domain or fragment, human, UniProt Q9UL03 800-887, looked up)
chain: MHCRSHEEVNTELKAQIMKEIRKPGRKYERIFTLLKHVQGSLQTRLIFLQNVIKEASRFKKRMLIEQLENFLDEIHRRANQINHINSN
B3: INTS3(1-995) (domain or fragment, human, UniProt Q68E01 1-995, looked up)
chain: MELQKGKGAAAAAAASGAAGGGGGGAGAGAPGGGRLLLSTSLDAKDELEERLERCMSIVTSMTAGVSEREANDALNAYVCKGLPQHEEICLGLFTLILTEPAQAQKCYRDLALVSRDGMNIVLNKINQILMEKYLKLQDTCRTQLVWLVRELVKSGVLGADGVCMTFMKQIAGGGDVTAKNIWLAESVLDILTEQREWVLKSSILIAMAVYTYLRLIVDHHGTAQLQALRQKEVDFCISLLRERFMECLMIGRDLVRLLQNVARIPEFELLWKDIIHNPQALSPQFTGILQLLQSRTSRKFLACRLTPDMETKLLFMTSRVRFGQQKRYQDWFQRQYLSTPDSQSLRCDLIRYICGVVHPSNEVLSSDILPRWAIIGWLLTTCTSNVAASNAKLALFYDWLFFSPDKDSIMNIEPAILVMHHSMKPHPAITATLLDFMCRIIPNFYPPLEGHVRQGVFSSLNHIVEKRVLAHLAPLFDNPKLDKELRAMLREKFPEFCSSPSPPVEVKIEEPVSMEMDNHMSDKDESCYDNAEAAFSDDEEDLNSKGKKREFRFHPIKETVVEEPVDITPYLDQLDESLRDKVLQLQKGSDTEAQCEVMQEIVDQVLEEDFDSEQLSVLASCLQELFKAHFRGEVLPEEITEESLEESVGKPLYLIFRNLCQMQEDNSSFSLLLDLLSELYQKQPKIGYHLLYYLRASKAAAGKMNLYESFAQATQLGDLHTCLMMDMKACQEDDVRLLCHLTPSIYTEFPDETLRSGELLNMIVAVIDSAQLQELVCHVMMGNLVMFRKDSVLNILIQSLDWETFEQYCAWQLFLAHNIPLETIIPILQHLKYKEHPEALSCLLLQLRREKPSEEMVKMVLSRPCHPDDQFTTSILRHWCMKHDELLAEHIKSLLIKNNSLPRKRQSLRSSSSKLAQLTLEQILEHLDNLRLNLTNTKQNFFSQTPILQALQHVQASCDEAHKMKFSDLFSLAEEYEDSSTKPPKSRRKAALSS

What was measured:
[1] = target: the molecule itself; experiment: crystal structure
[2] = target: B1; experiment: crystal structure
[3] = target: the molecule itself; experiment: SEC

Binder: B1
- stoichiometry N [1]: 2

Binder: B2
- binding result [2]: binds

Binder: B3
- stoichiometry N [3]: 2
